Changes are numbered by the printed parent chain.
Columns and labels:
[1] = molecular target: T1, mouse IL-13 (mouse, UniProt P20109 19-131, limits assumed); assay: SPR (Biacore 8K+), antibody captured on anti-human IgG Fc chip, IL-13 as analyte, 25 C
T1 construct: also called recombinant mouse IL-13
T1 sequence (looked up): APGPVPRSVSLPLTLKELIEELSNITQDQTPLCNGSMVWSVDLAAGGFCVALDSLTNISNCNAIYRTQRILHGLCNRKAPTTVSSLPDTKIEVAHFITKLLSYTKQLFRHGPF

[2] = molecular target: cynomolgus IL-13 (cynomolgus, UniProt Q0PW92 21-132); assay: cell-based or functional assay
Sequence of cynomolgus IL-13 (Q0PW92 entry or part of it): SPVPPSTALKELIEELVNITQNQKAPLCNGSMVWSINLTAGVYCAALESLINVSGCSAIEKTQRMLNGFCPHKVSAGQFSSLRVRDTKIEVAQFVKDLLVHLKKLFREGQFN

[3] = molecular target: T2, HIS-tagged human FcRn (human, UniProt P55899 24-297; P61769 21-119); assay: SPR (Biacore 8K+), antibody captured on anti-human Fab CM4 chip, HIS-tagged human FcRn 9.8-5000 nM as analyte, pH 6.0, 25 C, steady-state fit
T2 construct: not shown: HIS tag
T2 sequence (P55899 24-297 limits assumed, chain 1 of 2): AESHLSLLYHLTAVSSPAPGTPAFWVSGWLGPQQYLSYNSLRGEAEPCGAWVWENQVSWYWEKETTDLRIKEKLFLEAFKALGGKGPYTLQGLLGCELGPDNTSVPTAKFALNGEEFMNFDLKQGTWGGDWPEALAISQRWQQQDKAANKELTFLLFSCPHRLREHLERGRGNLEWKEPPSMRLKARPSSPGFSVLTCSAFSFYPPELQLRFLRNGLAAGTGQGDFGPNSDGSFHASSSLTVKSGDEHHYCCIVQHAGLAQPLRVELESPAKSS
T2 sequence (P61769 21-119 limits assumed, chain 2 of 2): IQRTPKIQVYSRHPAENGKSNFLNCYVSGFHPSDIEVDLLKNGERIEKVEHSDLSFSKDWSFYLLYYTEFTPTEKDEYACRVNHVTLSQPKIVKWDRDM

[4] = molecular target: T3, human IL-13 (human, UniProt P35225 25-146, limits assumed); assay: SPR (Biacore 8K+), antibody captured on anti-human Fc CM4 chip, human IL-13 0.6-10 nM as analyte, 37 C, 1:1 fit
T3 construct: The KinExA antigen was detected with an anti-HIS IgG, so it probably carried a HIS tag; also called Interleukin-13; hIL-13
T3 sequence (P35225 other isoform, or with tags, fused parts or gaps limits assumed): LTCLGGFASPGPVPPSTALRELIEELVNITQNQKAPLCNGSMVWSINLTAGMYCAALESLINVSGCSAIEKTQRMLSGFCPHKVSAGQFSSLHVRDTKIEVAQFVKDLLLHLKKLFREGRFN

[5] = molecular target: T3, human IL-13; assay: cell-based or functional assay
[6] = molecular target: human FcγRIIIa-V176 (human, UniProt P08637 17-208, biotinylated (site not stated)); assay: BLI (Octet RH96), biotinylated Fcγ receptor on streptavidin sensors, antibody at 10,000 nM
Sequence of human FcγRIIIa-V176 (P08637 17-208 F176V limits assumed): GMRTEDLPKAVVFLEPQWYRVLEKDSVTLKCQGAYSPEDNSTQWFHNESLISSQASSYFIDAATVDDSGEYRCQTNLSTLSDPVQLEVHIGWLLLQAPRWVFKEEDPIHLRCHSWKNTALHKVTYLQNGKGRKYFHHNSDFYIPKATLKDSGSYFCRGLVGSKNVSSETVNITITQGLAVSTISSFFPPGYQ

[7] = molecular target: human FcγRIIIa-F176 (human, UniProt P08637 17-208, biotinylated (site not stated)); assay: as above
Sequence of human FcγRIIIa-F176 (P08637 17-208 limits assumed): as the sequence (P08637 17-208 F176V limits assumed) above, with V160F counted along it

[8] = molecular target: T2, HIS-tagged human FcRn; assay: SPR (Biacore 8K+), pH 6.0, 25 C, steady-state fit
[9] = molecular target: human FcγRIIIb-NA2 (human, UniProt O75015 17-200, limits assumed, biotinylated (site not stated)); assay: BLI (Octet RH96), biotinylated Fcγ receptor on streptavidin sensors
Sequence of human FcγRIIIb-NA2 (O75015 17-200 N65S limits assumed): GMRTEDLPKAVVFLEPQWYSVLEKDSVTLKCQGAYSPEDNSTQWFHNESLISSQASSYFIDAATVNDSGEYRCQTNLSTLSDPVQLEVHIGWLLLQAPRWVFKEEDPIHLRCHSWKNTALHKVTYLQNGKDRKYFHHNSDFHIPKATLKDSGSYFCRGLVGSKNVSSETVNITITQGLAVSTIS

[10] = molecular target: human FcγRIIIb-NA1 (human, UniProt O75015 17-200, limits assumed, biotinylated (site not stated)); assay: as above
Sequence of human FcγRIIIb-NA1 (O75015 other isoform, or with tags, fused parts or gaps limits assumed): as the sequence (O75015 17-200 N65S limits assumed) above, with S20R, S49N, N66D, I90V counted along it

[11] = molecular target: T3, human IL-13; assay: cell-based or functional assay; remark: listed apart in the source
[12] = molecular target: T4, human FcγRIIa-R167 (human, UniProt P12318 36-218, limits assumed, biotinylated (site not stated)); assay: BLI (summary of Example 8)
T4 sequence (looked up): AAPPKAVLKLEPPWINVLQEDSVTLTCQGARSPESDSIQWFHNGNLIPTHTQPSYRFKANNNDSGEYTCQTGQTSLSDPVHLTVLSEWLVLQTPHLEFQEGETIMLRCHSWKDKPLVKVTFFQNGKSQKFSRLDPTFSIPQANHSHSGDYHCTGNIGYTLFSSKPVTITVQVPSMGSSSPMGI

[13] = molecular target: T5, human FcγRI (human, UniProt P12314 16-288, limits assumed, biotinylated (site not stated)); assay: BLI (summary of Example 8)
T5 sequence (P12314 16-288 limits assumed): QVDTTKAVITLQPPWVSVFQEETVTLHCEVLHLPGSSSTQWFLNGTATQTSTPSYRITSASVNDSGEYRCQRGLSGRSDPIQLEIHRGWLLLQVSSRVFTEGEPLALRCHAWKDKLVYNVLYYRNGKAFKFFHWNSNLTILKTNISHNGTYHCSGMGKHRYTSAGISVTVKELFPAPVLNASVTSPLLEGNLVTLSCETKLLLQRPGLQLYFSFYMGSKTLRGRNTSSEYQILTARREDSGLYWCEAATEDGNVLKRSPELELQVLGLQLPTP

[14] = molecular target: T6, human FcγRIIb (human, UniProt P31994 46-217, limits assumed, biotinylated (site not stated)); assay: BLI (summary of Example 8)
T6 sequence (looked up): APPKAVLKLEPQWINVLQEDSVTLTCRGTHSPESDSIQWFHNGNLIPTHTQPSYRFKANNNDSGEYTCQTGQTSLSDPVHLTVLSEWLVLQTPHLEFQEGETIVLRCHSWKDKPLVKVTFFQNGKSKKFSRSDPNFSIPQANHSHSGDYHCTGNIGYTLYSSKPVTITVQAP

[15] = molecular target: T7, human FcγRIIa-H167 (human, UniProt P12318 36-218, limits assumed, biotinylated (site not stated)); assay: BLI (summary of Example 8)
T7 sequence (looked up): T4 sequence (looked up) with R132H

[16] = molecular target: T3, human IL-13; assay: KinExA, solution equilibrium, free antigen captured on Ref1-coated beads, 25 C
[17] = molecular target: T3, human IL-13; assay: cell-based or functional assay; remark: listed apart in the source
[18] = molecular target: T3, human IL-13; assay: SPR (Biacore 8K+), antibody captured on anti-human pAb CM4 chip, human IL-13 0.6-10 nM as analyte, 37 C, 1:1 fit
[19] = molecular target: T4, human FcγRIIa-R167; assay: BLI (Octet RH96), biotinylated Fcγ receptor on streptavidin sensors, antibody at 10,000 nM
[20] = molecular target: T5, human FcγRI; assay: as above
[21] = molecular target: T6, human FcγRIIb; assay: as above
[22] = molecular target: T7, human FcγRIIa-H167; assay: as above

B1: AbAB (antibody, human IgG1, kappa)
heavy: QVTLRESGPALVKPTQTLTLTCTVSGASLSAYSVNWIRQPPGKALEWLAMIWGDGKIVYNSALKSRLTISKDTSKNQVVLTMTNMDPVDTATYYCAGDGYFPYAMDNWGQGSLVTVSSASTKGPSVFPLAPSSKSTSGGTAALGCLVKDYFPEPVTVSWNSGALTSGVHTFPAVLQSSGLYSLSSVVTVPSSSLGTQTYICNVNHKPSNTKVDKRVEPKSCDKTHTCPPCPAPEFEGGPSVFLFPPKPKDTLYITREPEVTCVVVDVSHEDPEVKFNWYVDGVEVHNAKTKPREEQYNSTYRVVSVLTVLHQDWLNGKEYKCKVSNKALPASIEKTISKAKGQPREPQVYTLPPSREEMTKNQVSLTCLVKGFYPSDIAVEWESNGQPENNYKTTPPVLDSDGSFFLYSKLTVDKSRWQQGNVFSCSVMHEALHNHYTQKSLSLSPGK
light: DIVMTQSPDSLSVSLGERATINCRASKSVDSYGNSYMHWYQQKPGQPPKLLIYLASNLESGVPDRFSGSGSGTDFTLTISSLQAEDVAVYYCQQNNEDPRTFGGGTKVEIKRTVAAPSVFIFPPSDEQLKSGTASVVCLLNNFYPREAKVQWKVDNALQSGNSQESVTEQDSKDSTYSLSSTLTLSKADYEKHKVYACEVTHQGLSSPVTKSFNRGEC
notes: same variable regions as AbG; also called Antibody AbAB
- binding result [1]: no binding
- Mean IC50 (nM) Donor 1, Phospho-STAT6 assay in cynomolgus CD14+ monocytes [2]: 18.8 nM
- Mean IC50 (nM) Donor 2, Phospho-STAT6 assay in cynomolgus CD14+ monocytes [2]: 15.1 nM
- Mean IC50 (nM) Donor 3, Phospho-STAT6 assay in cynomolgus CD14+ monocytes [2]: 18.1 nM
- Kd [3]: 129 nM
- Kd [4]: 0.00722 nM
- koff [4]: 4.85e-06 s⁻¹
- kon [4]: 676000 M⁻¹ s⁻¹
- Mean IC50 (nM) Donor 1, Phospho-STAT6 assay in human CD14+ monocytes [5]: 34.9 nM
- Mean IC50 (nM) Donor 2, Phospho-STAT6 assay in human CD14+ monocytes [5]: 33 nM
- Mean IC50 (nM) Donor 3, Phospho-STAT6 assay in human CD14+ monocytes [5]: 37.7 nM
- binding result [6]: binds
- binding result [7]: binds
- fold higher affinity than Ref2 [8]: 6 fold
- binding result [9]: no binding (tested: 10,000 nM)
- binding result [10]: no binding (tested: 10,000 nM)
- Mean IC50 (nM), HEK-Blue IL-4/IL-13 assay with 3.7 nM IL-13 [11]: 0.113 nM
- binding result [12]: binds
- binding result [13]: binds
- binding result [14]: binds
- binding result [15]: binds

B2: Ref2 (antibody, human IgG4 S228P, kappa)
heavy: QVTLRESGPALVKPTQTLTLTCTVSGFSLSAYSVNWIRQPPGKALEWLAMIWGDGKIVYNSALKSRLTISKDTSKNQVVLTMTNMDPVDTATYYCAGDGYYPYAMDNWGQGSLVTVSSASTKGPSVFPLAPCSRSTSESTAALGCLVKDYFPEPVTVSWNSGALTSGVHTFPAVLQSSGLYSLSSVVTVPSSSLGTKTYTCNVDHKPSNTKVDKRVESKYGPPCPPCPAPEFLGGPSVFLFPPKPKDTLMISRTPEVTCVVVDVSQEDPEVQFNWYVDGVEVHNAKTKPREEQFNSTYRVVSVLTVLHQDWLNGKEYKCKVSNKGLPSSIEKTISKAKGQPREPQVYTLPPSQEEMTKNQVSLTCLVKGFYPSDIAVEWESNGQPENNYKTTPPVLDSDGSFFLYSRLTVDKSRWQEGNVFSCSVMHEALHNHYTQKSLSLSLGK
light: B1 light with Y36F
notes: hIgG4; copies: 2 + 2
- Kd [16]: 0.00909 nM
- koff [16]: 9.76e-06 s⁻¹
- kon [16]: 1.07e+06 M⁻¹ s⁻¹
- binding result [1]: no binding
- IC50, HEK-Blue IL-13Ra1/IL-4Ra STAT6-SEAP reporter assay [17]: 0.277 µg/mL
- Kd [3]: 734 nM
- Kd [18]: 0.0512 nM
- koff [18]: 3.22e-05 s⁻¹
- kon [18]: 695000 M⁻¹ s⁻¹
- binding result [7]: binds
- binding result [19]: binds
- binding result [20]: binds
- binding result [21]: binds
- binding result [22]: binds
- binding result [9]: no binding (tested: 10,000 nM)
- binding result [10]: no binding (tested: 10,000 nM)

Reference: US20260116963A1 (GENERATE BIOMEDICINES, published 2026)
